# From PMC5117854, “Functional asymmetry and electron flow in the bovine respirasome” (eLife, 2016)
# T1: subunit 1 of complex III (bovine (endogenous in heart …, UniProt P31800 35-480))
# T1 construct: complex III subunit 1, bovine heart; stood in the assay as a subunit of the complex III dimer within the respirasome; also called subunit 1 of the bc1 complex; source: endogenous, bovine heart mitochondria; part of the supercomplex I1III2IV1 purified in amphipol A8-35
# T1 sequence (looked up): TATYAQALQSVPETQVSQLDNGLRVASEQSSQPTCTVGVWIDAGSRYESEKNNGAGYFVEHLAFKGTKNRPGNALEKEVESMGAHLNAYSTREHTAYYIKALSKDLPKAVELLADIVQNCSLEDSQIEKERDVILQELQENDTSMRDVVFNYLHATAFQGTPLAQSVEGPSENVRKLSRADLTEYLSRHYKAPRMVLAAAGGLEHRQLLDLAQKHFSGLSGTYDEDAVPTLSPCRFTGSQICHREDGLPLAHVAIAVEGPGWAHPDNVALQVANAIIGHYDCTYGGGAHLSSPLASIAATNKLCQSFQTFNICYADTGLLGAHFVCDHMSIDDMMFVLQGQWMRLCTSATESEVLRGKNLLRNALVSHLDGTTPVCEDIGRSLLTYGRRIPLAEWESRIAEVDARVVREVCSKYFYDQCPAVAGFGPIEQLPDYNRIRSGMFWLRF
# Tests used:
# [1] = biological target: T2, subunit ND5 of complex I (bovine (endogenous in heart …, UniProt P03920 1-606)); experiment: cryo-EM structure; class 1 map of supercomplex I1III2IV1 (17,094 particles, 9.1 Å; transmembrane region 8.6 Å); native supercomplex co-purified from bovine heart mitochondria (PCC-a-M, then amphipol A8-35, density gradient); atomic models of complexes I, III and IV docked; conditions: both partners purified
# T2 construct: complex I core subunit ND5, bovine heart; stood in the assay as a subunit of complex I within the respirasome; source: endogenous, bovine heart mitochondria; part of the supercomplex I1III2IV1 purified in amphipol A8-35
# [2] = biological target: T1, subunit 1 of complex III; experiment: as above; conditions: both partners purified
# T2 sequence (P03920 whole entry, one chain of several): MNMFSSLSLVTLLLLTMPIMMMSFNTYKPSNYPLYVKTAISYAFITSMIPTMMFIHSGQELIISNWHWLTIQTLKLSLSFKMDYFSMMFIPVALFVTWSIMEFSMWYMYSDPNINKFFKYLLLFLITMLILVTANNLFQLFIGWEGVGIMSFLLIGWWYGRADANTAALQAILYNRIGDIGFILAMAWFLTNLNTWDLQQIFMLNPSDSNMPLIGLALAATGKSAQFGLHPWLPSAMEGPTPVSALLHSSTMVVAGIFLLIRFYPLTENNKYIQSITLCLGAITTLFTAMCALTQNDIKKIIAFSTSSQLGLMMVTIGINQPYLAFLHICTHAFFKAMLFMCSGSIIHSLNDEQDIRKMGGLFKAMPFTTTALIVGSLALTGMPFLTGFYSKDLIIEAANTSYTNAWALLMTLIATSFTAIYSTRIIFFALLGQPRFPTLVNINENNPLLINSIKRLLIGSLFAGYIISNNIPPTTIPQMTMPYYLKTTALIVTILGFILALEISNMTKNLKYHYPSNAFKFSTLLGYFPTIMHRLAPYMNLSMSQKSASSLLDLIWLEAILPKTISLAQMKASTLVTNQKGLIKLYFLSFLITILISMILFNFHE
binder,measurement,setting,value
"SHYEEGPGKNIPFSVENKWRLLAMMTLFFGSGFAAPFFIVRHQLLKK (natural protein, UniProt P00430 17-63, looked up, complex IV subunit COX7C, bovine heart; stood in the assay as a subunit of complex IV within the respirasome; source: endogenous, bovine heart mitochondria; part of the supercomplex I1III2IV1 purified in amphipol A8-35) [complex IV subunit COX7C]",binding result,[1],binds
"COX7A1 of cytochrome c oxidase (complex IV) (natural protein, UniProt P07470 22-80, looked up, complex IV subunit COX7A1, bovine heart; stood in the assay as a subunit of complex IV within the respirasome; source: endogenous, bovine heart mitochondria; part of the supercomplex I1III2IV1 purified in amphipol A8-35) FENRVAEKQKLFQEDNGLPVHLKGGATDNILYRVTMTLCLGGTLYSLYCLGWASFPHKK",binding result,[2],binds
